Source: EP4592317A1 (ABlink Biotech Co., Ltd., dated 2025)
Values joined by “and” are separate entries in the source; they are usually repeats but may differ in a detail not shown here. Identical values can stand only once.

T1: Mouse 4-1BB extracellular region recombinant protein (his-tag) (mouse, UniProt P20334 24-187)
T1 construct: extracellular domain; also called Mouse4-1BB, his-tag; not shown: his-tag
T1 sequence (looked up): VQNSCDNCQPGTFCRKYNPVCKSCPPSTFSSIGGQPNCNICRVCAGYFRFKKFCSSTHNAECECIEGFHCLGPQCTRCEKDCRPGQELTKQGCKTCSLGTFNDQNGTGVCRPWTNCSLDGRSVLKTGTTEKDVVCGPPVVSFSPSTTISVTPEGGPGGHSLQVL

B1: 137-7 VHH-hFc recombinant antibody (Fc fusion)
chain: QVQLVESGGGLVQPGGSLRLSCAASGFTLDSYAIAWFRQAPGKEREGVSCITSSGGSTNYADSVKGRFTISRDGAKNTVYLQLNSLKPEDTAIYYCAAFHRATCVILGEYDYWGQGTQVTVSS
notes: VHH fragment inserted into vector pFclG with human IgG1 Fc tag, expressed in HEK293F; also called CD137-7; not shown: human IgG1 Fc tag of the eukaryotic expression vector pFclG
B2: 137-1 VHH-hFc recombinant antibody (Fc fusion)
chain: QVQLVESGGGLVQPGGSLRLSCVASGFVFSTVTMGWGRQVPGKEFEWVSGVSSEGITDYADSVKGRFTISRDNAKNTVYLEMNSLKSEDTAEYYCLIGGRWSFGTWGQGTQVTVSS
notes: also called CD137-1; not shown: human IgG1 Fc tag of the eukaryotic expression vector pFclG
B3: 137-12 VHH-hFc recombinant antibody (Fc fusion)
chain: QVQLVESGGGLVHPGGSLRLSCAASGFTLDDSAIGWFRQAPGKEREGVSCRSRSGYMTKYADSVKGRFTISRYNANNTMYLQMNSLKPEDTAVYYCATTRRGYCSGYETKGVDYWGQGIQVTVSS
notes: VHH fragment inserted into vector pFclG with human IgG1 Fc tag, expressed in HEK293F; not shown: human IgG1 Fc tag of the eukaryotic expression vector pFclG
B4: 137-36 VHH-hFc recombinant antibody (Fc fusion)
chain: QVQLVESGGGLVQTGGSLTLSCVASGRRFEAYTIGWLRQAPGDLREGVGCIFGGTTFTGYDDSVKGRFTISRDTAKNTVYLRMNNLTSEDTATYYCAAEGRPGQIKGQHGCLTPSWYNYKGQGTQVTVSS
notes: as for B3
B5: 137-39 VHH-hFc recombinant antibody (Fc fusion)
chain: QVQLVESGGGLVHVGESLTLSCVISGGSSNLYGIGWYRQAPGQERKLVAVLHNEHTTKYLDSVKGRFFVSGDNAKNTLYLHMNNVKVEDTAVYYCNSASGTLAGTGYFASVGPWGQGTLVTVSS
notes: VHH fragment inserted into vector pFclG with human IgG1 Fc tag, expressed in HEK293F; Preparation had non-specific bands, purity about 30%; not shown: human IgG1 Fc tag of the eukaryotic expression vector pFclG
B6: 137-16 VHH-hFc recombinant antibody (Fc fusion)
chain: EVQLVESGGGLVQAGASLTLSCVISGRTFSSYAMGWYRQAPGKERAFVGTITWNNDIIYSDSVKGRFTISTDDGKNTMYLQMNNLKPEDTAVYYCAAYSVPYGDFCTLNYDLMDYWGKGTLVTVSS
notes: VHH fragment inserted into vector pFclG with human IgG1 Fc tag, expressed in HEK293F; Preparation had non-specific bands, purity >70%; also called CD137-16; not shown: human IgG1 Fc tag of the eukaryotic expression vector pFclG

Molecular target: T1, Mouse 4-1BB extracellular region …
Experiment: ELISA, coated mouse 4-1BB his-tag 200 ng/well

Row | binding result | Binder
1 | no binding (tested: 0.014-10 µg/mL) | B1
2 | no binding (tested: 0.014-10 µg/mL) | B2

Molecular target: T2, Human 4-1BB extracellular domain recombinant protein (his-tag) (human, UniProt Q07011 24-186)
T2 construct: extracellular domain; also called Human4-1BB, his-tag; human 4-1BB extracellular region recombinant protein; not shown: his-tag
Experiment: ELISA, coated human 4-1BB-his 200 ng/well

Row | EC50 | Binder
3 | 6.3e-05 µg/mL and 0.001 nM | B3
4 | 0.001 µg/mL and 0.011 nM | B4
5 | 0.09 µg/mL and 1.12 nM | B1
6 | 6.04 µg/mL and 75.6 nM | B5
7 | 0.138 µg/mL and 1.73 nM | B2
8 | 0.536 µg/mL and 6.7 nM | B6

Molecular target: T3, Monkey 4-1BB extracellular region recombinant protein (his-tag) (monkey)
T3 construct: extracellular domain; also called Monkey4-1BB, his-tag
Experiment: ELISA, coated monkey 4-1BB-his 200 ng/well

Row | EC50 | Binder
9 | 10.3 µg/mL and 128 nM | B3
10 | 51.9 µg/mL and 649 nM | B4
11 | 0.17 µg/mL and 2.12 nM | B1
12 | 0.001 µg/mL and 0.012 nM | B5
13 | 0.113 µg/mL and 1.41 nM | B2
14 | 0.234 µg/mL and 2.93 nM | B6

Molecular target: T2, Human 4-1BB extracellular domain …
Experiment: ELISA, coated human 4-1BB-his 200 ng/well; antibody 0.12 µg/ml

Row | absorbance at 450 nm | Binder
15 | 0.334 | B3
16 | 0.383 | B4
17 | 2.37 | B1
18 | 0.461 | B5
19 | 1.5 | B2
20 | 0.704 | B6

Molecular target: T2, Human 4-1BB extracellular domain …
Experiment: ELISA, coated human 4-1BB-his 200 ng/well; antibody 0.37 µg/ml

Row | absorbance at 450 nm | Binder
21 | 0.341 | B3
22 | 0.347 | B4
23 | 0.458 | B5
24 | 3.97 | B2
25 | 1.58 | B6

Molecular target: T2, Human 4-1BB extracellular domain …
Experiment: ELISA, coated human 4-1BB-his 200 ng/well; antibody 1.11 µg/ml

Row | absorbance at 450 nm | Binder
26 | 0.376 | B3
27 | 0.414 | B4
28 | 0.62 | B5
29 | 3.52 | B6

Molecular target: T2, Human 4-1BB extracellular domain …
Experiment: ELISA, coated human 4-1BB-his 200 ng/well; antibody 10.0 µg/ml

Row | absorbance at 450 nm | Binder
30 | 0.432 | B3
31 | 0.48 | B4
32 | 1.45 | B5

Molecular target: T2, Human 4-1BB extracellular domain …
Experiment: ELISA, coated human 4-1BB-his 200 ng/well; antibody 3.33 µg/ml

Row | absorbance at 450 nm | Binder
33 | 0.433 | B3
34 | 0.454 | B4
35 | 1 | B5

Molecular target: T1, Mouse 4-1BB extracellular region …
Experiment: ELISA, coated mouse 4-1BB-his 200 ng/well; antibody 0.12 µg/ml

Row | absorbance at 450 nm | Binder
36 | 0.166 | B1
37 | 0.184 | B2

Molecular target: T1, Mouse 4-1BB extracellular region …
Experiment: ELISA, coated mouse 4-1BB-his 200 ng/well; antibody 0.37 µg/ml

Row | absorbance at 450 nm | Binder
38 | 0.201 | B1
39 | 0.269 | B2

Molecular target: T1, Mouse 4-1BB extracellular region …
Experiment: ELISA, coated mouse 4-1BB-his 200 ng/well; antibody 1.11 µg/ml

Row | absorbance at 450 nm | Binder
40 | 0.191 | B1
41 | 0.207 | B2

Molecular target: T1, Mouse 4-1BB extracellular region …
Experiment: ELISA, coated mouse 4-1BB-his 200 ng/well; antibody 10.0 µg/ml

Row | absorbance at 450 nm | Binder
42 | 0.284 | B1
43 | 0.31 | B2

Molecular target: T1, Mouse 4-1BB extracellular region …
Experiment: ELISA, coated mouse 4-1BB-his 200 ng/well; antibody 3.33 µg/ml

Row | absorbance at 450 nm | Binder
44 | 0.218 | B1
45 | 0.231 | B2

Molecular target: T2, Human 4-1BB extracellular domain …
Experiment: ELISA, coated human 4-1BB-his 200 ng/well; antibody 0.014 µg/ml

Row | absorbance at 450 nm | Binder
46 | 0.395 | B3
47 | 0.413 | B4
48 | 0.589 | B1
49 | 0.521 | B5
50 | 0.612 | B2
51 | 0.41 | B6

Molecular target: T2, Human 4-1BB extracellular domain …
Experiment: ELISA, coated human 4-1BB-his 200 ng/well; antibody 0.041 µg/ml

Row | absorbance at 450 nm | Binder
52 | 0.355 | B3
53 | 0.372 | B4
54 | 0.963 | B1
55 | 0.477 | B5
56 | 0.754 | B2
57 | 0.419 | B6

Molecular target: T3, Monkey 4-1BB extracellular region …
Experiment: ELISA, coated monkey 4-1BB-his 200 ng/well; antibody 0.12 µg/ml

Row | absorbance at 450 nm | Binder
58 | 0.376 | B3
59 | 0.372 | B4
60 | 1.54 | B1
61 | 0.306 | B5
62 | 1.85 | B2
63 | 1.17 | B6

Molecular target: T3, Monkey 4-1BB extracellular region …
Experiment: ELISA, coated monkey 4-1BB-his 200 ng/well; antibody 0.37 µg/ml

Row | absorbance at 450 nm | Binder
64 | 0.343 | B3
65 | 0.276 | B4
66 | 3.19 | B1
67 | 0.251 | B5
68 | 3.97 | B2
69 | 2.79 | B6

Molecular target: T3, Monkey 4-1BB extracellular region …
Experiment: ELISA, coated monkey 4-1BB-his 200 ng/well; antibody 1.11 µg/ml

Row | absorbance at 450 nm | Binder
70 | 0.423 | B3
71 | 0.456 | B4
72 | 0.286 | B5

Molecular target: T3, Monkey 4-1BB extracellular region …
Experiment: ELISA, coated monkey 4-1BB-his 200 ng/well; antibody 10.0 µg/ml

Row | absorbance at 450 nm | Binder
73 | 1.07 | B3
74 | 1.91 | B4
75 | 0.405 | B5

Molecular target: T3, Monkey 4-1BB extracellular region …
Experiment: ELISA, coated monkey 4-1BB-his 200 ng/well; antibody 3.33 µg/ml

Row | absorbance at 450 nm | Binder
76 | 0.679 | B3
77 | 0.879 | B4
78 | 0.342 | B5

Molecular target: T1, Mouse 4-1BB extracellular region …
Experiment: ELISA, coated mouse 4-1BB-his 200 ng/well; antibody 0.014 µg/ml

Row | absorbance at 450 nm | Binder
79 | 0.187 | B1
80 | 0.199 | B2

Molecular target: T1, Mouse 4-1BB extracellular region …
Experiment: ELISA, coated mouse 4-1BB-his 200 ng/well; antibody 0.041 µg/ml

Row | absorbance at 450 nm | Binder
81 | 0.18 | B1
82 | 0.202 | B2

Molecular target: T3, Monkey 4-1BB extracellular region …
Experiment: ELISA, coated monkey 4-1BB-his 200 ng/well; antibody 0.014 µg/ml

Row | absorbance at 450 nm | Binder
83 | 0.385 | B3
84 | 0.333 | B4
85 | 0.581 | B1
86 | 0.292 | B5
87 | 0.621 | B2
88 | 0.447 | B6

Molecular target: T3, Monkey 4-1BB extracellular region …
Experiment: ELISA, coated monkey 4-1BB-his 200 ng/well; antibody 0.041 µg/ml

Row | absorbance at 450 nm | Binder
89 | 0.37 | B3
90 | 0.354 | B4
91 | 0.794 | B1
92 | 0.387 | B5
93 | 0.971 | B2
94 | 0.581 | B6

Molecular target: T2, Human 4-1BB extracellular domain …
Experiment: ELISA, coated human 4-1BB-his 200 ng/well; antibody 0 µg/ml (background well)

Row | absorbance at 450 nm | Binder
95 | 0.087 | B3
96 | 0.112 | B4
97 | 0.081 | B1
98 | 0.128 | B5
99 | 0.093 | B2
100 | 0.096 | B6

Molecular target: T1, Mouse 4-1BB extracellular region …
Experiment: ELISA, coated mouse 4-1BB-his 200 ng/well; antibody 0 µg/ml (background well)

Row | absorbance at 450 nm | Binder
101 | 0.209 | B1
102 | 0.24 | B2

Molecular target: T3, Monkey 4-1BB extracellular region …
Experiment: ELISA, coated monkey 4-1BB-his 200 ng/well; antibody 0 µg/ml (background well)

Row | absorbance at 450 nm | Binder
103 | 0.058 | B3
104 | 0.041 | B4
105 | 0.055 | B1
106 | 0.041 | B5
107 | 0.077 | B2
108 | 0.043 | B6

Molecular target: T2, Human 4-1BB extracellular domain …
Experiment: SPR (Biacore 8K), VHH-hFc captured on Protein A chip, human 4-1BB-his as analyte, 25°C, 1:1 fit

Row | Kd [nM] | koff [s⁻¹] | kon [M⁻¹ s⁻¹] | Binder
109 | 38 | 0.0298 | 783000 | B1
110 | 3.91 | 0.00916 | 2.34e+06 | B2
111 | 33.3 | 0.00274 | 82200 | B6
